Each sequence was assayed on Escherichia coli TOP10 (assay: shrunken log2 fold change of peptide-encoding DNA abundance (4.5 h post-induction vs induction); higher = less antimicrobial activity (less host growth inhibition)). Settings: time post-induction: 4.5 h; library: site-saturation at positions 5, 18, 19, 20.
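Further: peptides expressed intracellularly from a pBAD plasmid library in pooled LB shake-flask culture, induced with 0.3% L-arabinose, DNA abundance read by NGS, three biological replicates, DESeq2 with apeglm shrinkage.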

| Sequence | shrunken log2 fold change |
| --- | --- |
| RRIRFRPPRLPRPRPRPESQPRP | -0.0723 |
| RRIRERPPRLPRPRPRPWGAPRP | 0.165 |
| RRIRERPPRLPRPRPRPMGFPRP | 0.0499 |
| RRIRPRPPRLPRPRPRPCKSPRP | -0.0854 |
| RRIRMRPPRLPRPRPRPHHTPRP | -0.263 |
| RRIRARPPRLPRPRPRPVIEPRP | 0.362 |
| RRIRLRPPRLPRPRPRPCCDPRP | -0.139 |
| RRIRCRPPRLPRPRPRPLTRPRP | 0.258 |
| RRIRHRPPRLPRPRPRPCCRPRP | -0.276 |
| RRIRTRPPRLPRPRPRPIKQPRP | -0.0342 |
| RRIRNRPPRLPRPRPRPHNVPRP | -0.0343 |
| RRIRWRPPRLPRPRPRPDMRPRP | 0.499 |
| RRIRKRPPRLPRPRPRPQHDPRP | 0.202 |
| RRIRPRPPRLPRPRPRPEHFPRP | 0.134 |
| RRIRPRPPRLPRPRPRPVRKPRP | 0.73 |
| RRIRCRPPRLPRPRPRPKNHPRP | -0.461 |
| RRIRSRPPRLPRPRPRPTCLPRP | -0.117 |
| RRIRSRPPRLPRPRPRPSLGPRP | 0.319 |
| RRIRKRPPRLPRPRPRPQVAPRP | -0.0663 |
| RRIRCRPPRLPRPRPRPKQYPRP | -0.629 |
| RRIRARPPRLPRPRPRPQIEPRP | 0.234 |
| RRIRCRPPRLPRPRPRPRMYPRP | -0.562 |
| RRIRMRPPRLPRPRPRPLLAPRP | 2.1 |
| RRIRSRPPRLPRPRPRPGRSPRP | 0.109 |
| RRIRHRPPRLPRPRPRPCPQPRP | -0.195 |

| Sequence | shrunken log2 fold change |
| --- | --- |
| RRIRERPPRLPRPRPRPVTPPRP | 0.0669 |
| RRIRDRPPRLPRPRPRPLICPRP | 0.347 |
| RRIRIRPPRLPRPRPRPEIAPRP | -0.141 |
| RRIRKRPPRLPRPRPRPYVQPRP | -0.332 |
| RRIRNRPPRLPRPRPRPMITPRP | -0.0996 |
| RRIRNRPPRLPRPRPRPTRIPRP | -0.183 |
| RRIRCRPPRLPRPRPRPSMDPRP | -0.182 |
| RRIRKRPPRLPRPRPRPNPSPRP | 0.108 |
| RRIRNRPPRLPRPRPRPKSSPRP | -0.0182 |
| RRIRGRPPRLPRPRPRPNGPPRP | -0.0411 |
| RRIRPRPPRLPRPRPRPEQCPRP | -0.0149 |
| RRIRERPPRLPRPRPRPFAAPRP | 0.229 |
| RRIRYRPPRLPRPRPRPKFQPRP | -0.0557 |
| RRIRTRPPRLPRPRPRPCDLPRP | 0.0183 |
| RRIRNRPPRLPRPRPRPCAIPRP | -0.0115 |
| RRIRWRPPRLPRPRPRPNRMPRP | 0.126 |
| RRIRERPPRLPRPRPRPWFDPRP | -0.529 |
| RRIRFRPPRLPRPRPRPTDFPRP | -0.302 |
| RRIRTRPPRLPRPRPRPKIVPRP | -0.0543 |
| RRIRVRPPRLPRPRPRPWHHPRP | 0.0243 |
| RRIRFRPPRLPRPRPRPYPEPRP | -0.488 |
| RRIRIRPPRLPRPRPRPQGGPRP | 0.102 |
| RRIRRRPPRLPRPRPRPTGIPRP | 0.872 |
| RRIRKRPPRLPRPRPRPQHVPRP | -0.124 |
| RRIRDRPPRLPRPRPRPWRLPRP | -0.264 |

| Sequence | shrunken log2 fold change |
| --- | --- |
| RRIRPRPPRLPRPRPRPHGSPRP | 0.063 |
| RRIRGRPPRLPRPRPRPCPVPRP | 0.197 |
| RRIRHRPPRLPRPRPRPSMFPRP | -0.163 |
| RRIRSRPPRLPRPRPRPMGWPRP | 0.358 |
| RRIRERPPRLPRPRPRPPDYPRP | -0.202 |
| RRIRMRPPRLPRPRPRPMVEPRP | 0.0167 |
| RRIRIRPPRLPRPRPRPKQRPRP | 0.0202 |
| RRIRHRPPRLPRPRPRPYQPPRP | -0.216 |
| RRIRERPPRLPRPRPRPQKIPRP | -0.12 |
| RRIRHRPPRLPRPRPRPTVWPRP | 0.123 |
| RRIRGRPPRLPRPRPRPFTWPRP | 0.725 |
| RRIRQRPPRLPRPRPRPAVPPRP | -0.0193 |
| RRIRTRPPRLPRPRPRPACNPRP | 0.0894 |
| RRIRMRPPRLPRPRPRPYLSPRP | -0.0214 |
| RRIRCRPPRLPRPRPRPCSFPRP | -0.57 |
| RRIRERPPRLPRPRPRPSIDPRP | -0.0545 |
| RRIRVRPPRLPRPRPRPPDHPRP | 0.271 |
| RRIRGRPPRLPRPRPRPHSLPRP | -0.0762 |
| RRIRVRPPRLPRPRPRPYVVPRP | -0.0262 |
| RRIRIRPPRLPRPRPRPKHTPRP | -0.329 |
| RRIRGRPPRLPRPRPRPELRPRP | 1.71 |
| RRIRYRPPRLPRPRPRPWRPPRP | -0.0287 |
| RRIRIRPPRLPRPRPRPCMSPRP | -0.347 |
| RRIRNRPPRLPRPRPRPVMAPRP | 0.156 |
| RRIRKRPPRLPRPRPRPCSLPRP | -0.529 |
